Several values for one entry are separate records, joined by “and”; a condition that tells them apart may be missing. Equal entries are not always repeated.

The target of experiment [1] is BNP with deletion of aa 1-38 (BNP-Δ38) (influenza B virus (B/panama/45/1990)). The experiment is described as follows: negative-stain electron microscopy.
For experiment [2], the target named is BNP with deletion of aa 1-66 (BNP-Δ66) (influenza B virus (B/panama/45/1990)). The experiment is described as follows: negative-stain electron microscopy.

One may read the stoichiometry N as a count of units in the complex or per binding partner. On to “BNP with deletion of aa 1-38 (BNP-Δ38) (domain or fragment)”, for which, in experiment [1], the stoichiometry N is 4 and 5.

For “BNP with deletion of aa 1-66 (BNP-Δ66) (domain or fragment)”, the stoichiometry N in experiment [2] was 4 and 5.
